From the nanobody polyreactivity screen of Harvey et al. (2022)

Assay: yeast display, Sf9 membrane polyspecificity reagent, FACS + sequencing; frameworks hold sequencing errors
Summary of the method: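 Polyreactivity labels are assigned by the sorting gate from which each nanobody was recovered. The gates were low and high (top ~1%), set on anti-HA fluorescence for expression and streptavidin fluorescence for reagent binding. Before sorting, galactose-induced (36–48 hours) yeast display cells were stained for 1 hour at 4 °C with 10% biotinylated, detergent-solubilized Sf9 membrane reagent.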

| Sequence | polyreactivity (PSR sort gate) |
| --- | --- |
| QVQLVESGGGLVQAGGSLRLSCAASGSIFLYNAMGWYRQAPGKERELVATITYIGGRTYYADSVKGRFTISRDNAKNTVYLQMNSLKPEDSAVYYCAAEYYVISSPSFYEYDYWGQGTQVTVSS | low polyreactivity |
| QVQLVESGGGLVQAGGSLRLSCAASGSIFLYNDMGWYRQAPGKERELVAAISSGGNTNYADSVTGRFTISRDNAKNTVYLQMNSLKPEDTAVYYCNAAWIRVFQYTLYKYVYWGQGTQVTVSS | low polyreactivity |
| QVQLVESGGGLVQAGGSLRLSCAASGSIFLYNTKGWYRQAPGKERELVAAISFSGVTTYYADSVKGRFTISRDNAKNTVYLQMNSLKPEDTAVYYCNKYLWKFTNSPLGDYYWGQGTQVTVSS | high polyreactivity |
| QVQLVESGGGLVQAGGSLRLSCAASGSIFLYYAMGWYRQAPGKERELVAGIRRGGRTNYADSVKGRFTIPRDNAKNTVYLQMNSLKPEDTAVYYCAKGGYWGQGTQVTVSS | high polyreactivity |
| QVQLVESGGGLVQAGGSLRLSCAASGSIFNANAMGWYRQAPGNERELVAGIRSGSSTNYADSVKGRFTISRDNAKNTVYLQMNSLKPEDTAVYYCATEGYWVYGFDDEYWGQGTQVTVSS | low polyreactivity |
| QVQLVESGGGLVQAGGSLRLSCAASGSIFNDNVMGWYRPAPGKERELVAGISRSGTRTYYADSVKGRFTISRDNAKNTVYLQMNSLKPEDNAVYYCAAAYGQARRYNGSQYGSWGQGTQVTVSS | high polyreactivity |
| QVQLVESGGGLVQAGGSLRLSCAASGSIFNDYAMGWYRQAPGKERELVATISSGGDTYYADSVKGRFTISRDNAKNTVYLQMNSLKPEDTAVYYCAALTGGYVVYTDSYDYWGQGTQVTVSS | low polyreactivity |
| QVQLVESGGGLVQAGGSLRLSCAASGSIFNGNAMGWYRQAPGKERELVAAISSGDSTNYADSVKGRFTISRDNAKNTVYLQMNSLKPEDTAVYYCNAVHRSIARGGGMDYWGQGTQVTVSS | low polyreactivity |
| QVQLVESGGGLVQAGGSLRLSCAASGSIFNGYAMGWYRQAPGKERELVAAISKRGGSTYYADSVKGRFTISRDNAKNTVYLQMNSLKPEDTAVYYCAARRLFPYGYWGQGTQVTVSS | high polyreactivity |
| QVQLVESGGGLVQAGGSLRLSCAASGSIFNGYAMGWYRQAPGKERELVAAISRRGGSTYYADSVKGRFTISRVNAKNTVYLQMISLKPEDTAVYYCAADPRRPLSPQLSDYWGQGTQVTVSS | high polyreactivity |
| QVQLVESGGGLVQAGGSLRLSCAASGSIFNGYDMGWYRQAPWKERELVAAISLSGDSTYYADSVKGRFTISRDNAKNTVYLQMNSLKPEDTAVYYCAKGTISSYSPYWYYDYSDYEYWGQGTQVTVSS | low polyreactivity |
| QVQLVESGGGLVQAGGSLRLSCAASGSIFNGYTMGWYRQAPRKERELVAAISSRGGITYYADSVKGRFTISRDNAKNTVYLQMNSLKPEDTAVYYCAKTSGYYQAGSLKYGYWGQGTQVTVSS | high polyreactivity |
| QVQLVESGGGLVQAGGSLRLSCAASGSIFNIYAMGWYRQAPGKESELVAAISYSGGSTYYADSVKGRFTISRDNAKNTVYLQMNSLKPEDTAVYYCNADGYYFLISNANPLGYWGQGTQVTVSS | low polyreactivity |
| QVQLVESGGGLVQAGGSLRLSCAASGSIFNIYARGWYRQAPGKERELVATITGIADSTYYADSVKGRFTISRDNAKNTVYLQMNSLKPEDTAVYYCNADPSGVFFYSLEFDYWGQGTQVTVSS | low polyreactivity |
| QVQLVESGGGLVQAGGSLRLSCAASGSIFNKYAMGWYRQAPGKERELVAAISVSGTRTYYADSVKGRFTISRDNAKNTVYLQMNSLKPEDSAVYYCATKFFRTAYEYWGQGTQVTVSS | high polyreactivity |
| QVQLVESGGGLVQAGGSLRLSCAASGSIFNLNAMGWYRQAPGTEREFVAGITYSAGRTYYADSVKGRFTISRDNAKNTVYLQMNSLKPVDTAVYYCAARIYSKFTSYGILDSWGQGTQVTVSS | high polyreactivity |
| QVQLVESGGGLVQAGGSLRLSCAASGSIFNLYALGWYRKAPGKERELVAAIRWDGGSTYYADSVKGRFTISRDNAKNTVYLQMNSLKPEDTAVYYCAAETVYFRLLILDYWGQGTQVTVSS | high polyreactivity |
| QVQLVESGGGLVQAGGSLRLSCAASGSIFNLYTMGWYRQAPGKEMELVAVITGGGSTYYADSVKGRFTISRDNAKNTVYLQMNSLKPADTAVYYCAAKGPFYKSSRTGDYWGQGTQVTVSS | low polyreactivity |
| QVQLVESGGGLVQAGGSLRLSCAASGSIFNPYAMGWYRQAPGKQRELVAAISYTGGRTYYADSVKGRFTISRDNAQNTVYLQMNSLKPEDTAVYYCIADYIYSFYWSFYEYDYWGQGTQVTVSS | high polyreactivity |
| QVQLVESGGGLVQAGGSLRLSCAASGSIFNPYDMGWYRQAPGKERELVAAIDWSGGSTYYADSVKGRFTISRDNAKNTVYLQMNSLKPEDTAVYYCNAESYQDTLFGADNDYDYWGQGTLVTVSS | low polyreactivity |
| QVQLVESGGGLVQAGGSLRLSCAASGSIFNQYAMGWYRQAPGKERELVARIRGSTGTTYYADSVKGRFTISRDNAKNTVYLQMNSLKPEDTAVYYCNAARYQGRSRFDYWGQGTQVTVSS | high polyreactivity |
| QVQLVESGGGLVQAGGSLRLSCAASGSIFNRNAMGWYRQAPGKERELVAAITGRGGSTYYADSVKGRFTISRDNAKNTVYLQMDSLKPEDTAVYYCAAETLAPRAYYYWGQGTQVTVSS | low polyreactivity |

| Sequence | polyreactivity (PSR sort gate) |
| --- | --- |
| QVQLVESGGGLVQAGGSLRLSCAASGSIFNRYAMGWYRQAPGKERELVAVIRWRDGSTYYADSVKGRFTISRDNAKNTVYLQMNSLKPEDTAVYYCAAVYWGEEYEYWGQGTQVTVSS | low polyreactivity |
| QVQLVESGGGLVQAGGSLRLSCAASGSIFNRYAMRWYRQAPGKERALVAAISRSGSTYYADSVKGRFTISRDNAKNTVYLQMNSLKPEDTAVYYCNARGTTHHTSYDYWGQGTQVTVSS | low polyreactivity |
| QVQLVESGGGLVQAGGSLRLSCAASGSIFNSNAMGWYRQAPGKERELVAAITGSGGRTYYADSVKGRFTISRDNAKNTVYLQMNSLKPEDTAVYYCNAVTYSRRYAYYYWGQGTQVTVSS | high polyreactivity |
| QVQLVESGGGLVQAGGSLRLSCAASGSIFNSYAMGWYRQAPGKERELVAAISIRGTRTYYADSVKGRFTISRDNAKNTVYLQMNSLKPEDTAVYYCAADASYTEGMDYWGQGTQVTVSS | high polyreactivity |
| QVQLVESGGGLVQAGGSLRLSCAASGSIFNTYAMGWYRQAPGKEREFVASISRSGGSTRYADSVKGRFTISRDNAKNTVYLQMNSLIPEDTAVYYCAASWLGASGIRYDYWGQGTQVTVSS | high polyreactivity |
| QVQLVESGGGLVQAGGSLRLSCAASGSIFNTYVMGWYTQAPGKERELVAAITSSGGRTYYADSVKGRFTISRDNAKNTVYLQMNSLNPEDTAVYYCNTAQRWVGRNDYWGQGTQVTVSS | high polyreactivity |
| QVQLVESGGGLVQAGGSLRLSCAASGSIFNVYVMGWYRQAPGKERELVASITWTTGSTYADSVKGRFTISRDNAKNSVYFQMNSLKPEDTAVYYCNAEFPEDTSDDYWGQGTQVNVSS | low polyreactivity |
| QVQLVESGGGLVQAGGSLRLSCAASGSIFNYNAMGWYRQAPGKERELVAAMSGSGGRTYYADSVKGRFTISRDNAKYTVYLQMNSLKPEDTAVYYCATYVRITPYEYWGQGTQVTVSS | high polyreactivity |
| QVQLVESGGGLVQAGGSLRLSCAASGSIFNYYAMGWSRQAPGKERELVAAITTSGGNTYYADSVKGRFTISRDNAKNNVYLQMNILKPEDTAVYYCNADYRQITSYGFDYWGQGSQVTVSS | low polyreactivity |
| QVQLVESGGGLVQAGGSLRLSCAASGSIFNYYAMGWYRPAPGKERELVAGITTSGGSTYYADSVKGRFTISRDNAKNTVYLQMNSLKPEDTAVYYCAAYDYISSTYFLDDYWGQGTQVTVSS | low polyreactivity |
| QVQLVESGGGLVQAGGSLRLSCAASGSIFNYYAMGWYRQAPGKEREFVADISGSGSSTYYADSVKGRFTISRDNAKNTVYLQMNSLKPEDTAVYYCNAEYYWGVGYYPYSDYGYWGQGTQVTVSS | low polyreactivity |
| QVQLVESGGGLVQAGGSLRLSCAASGSIFNYYAMGWYRQAPGKERELVAAISWNGGRTYYADSVKGRFTISRDNAKNTVYLQMNSLKPEDTAVYYCNAYPAGYVAHTYDYWGQGTQVTVSS | high polyreactivity |
| QVQLVESGGGLVQAGGSLRLSCAASGSIFNYYAMGWYRQAPGKERELVAGITSVGSTYYADSVKGRFTISRDNAKNTVYLQMNSLKPEDTAVYYCAAGYWYGMYYWGQGTQVTVSS | high polyreactivity |
| QVQLVESGGGLVQAGGSLRLSCAASGSIFNYYAMGWYRQAPGKESELVAGITTSGGSTYYADSVKGRFTISRDNAKNTVYLQMNSLKPEDTAVYYCAAYDYISSTYFLYDYWGQGTQVTVSS | low polyreactivity |
| QVQLVESGGGLVQAGGSLRLSCAASGSIFNYYTMGWYRQAPGKRELVAAITWSGDSTYYADSVKGRFTISRDNAKNTVYLQMNSLKPEDTAVYYCAAAQARRYYWGQGTQVTVSS | high polyreactivity |
| QVQLVESGGGLVQAGGSLRLSCAASGSIFPAYAMGWYRQAPGKERELVAAITRGGSTDYADSVKGRFTISRDNAKNTVYLQMNSLKPEDTAVYYCATGDGPSLFDYWGQGTQVTVSS | low polyreactivity |
| QVQLVESGGGLVQAGGSLRLSCAASGSIFPDNAMGRYRQAAGKVRELVAAIDKGTGSTNYADSVKGRFTISRDNAKNSVYLQINSVKPEDTAGYYCDKGWLSPRGGAWYDDYWGQGTEVTVSS | low polyreactivity |
| QVQLVESGGGLVQAGGSLRLSCAASGSIFPDNAMGWDRQAPGKERELVAAITSGGGTYYADSVKGRFTISRDNAKNTVYLQMNSLKPEDTAVYYCNTEDYTQYEPGYYPPNYYWGQGTQVTVSS | low polyreactivity |
| QVQLVESGGGLVQAGGSLRLSCAASGSIFPDNAMGWYRQAPGKERELVAAITRGGSTYYADSVKGRFTISRDNAKNTVYLQMNSLKPEDTAVYYCAARRRYLWSYDYWGQGTQVTVSS | high polyreactivity |
| QVQLVESGGGLVQAGGSLRLSCAASGSIFPDNAMRWYRQAPGKERELVAAITRGGSTYYADSVKGRFTISRDNAKNTVYLQMNSLKPEDTAVYYCAARRRYLWSYDYWGQGTQVTVSS | high polyreactivity |
| QVQLVESGGGLVQAGGSLRLSCAASGSIFPDYAMGGYRQAPGKERELVAAITWSGGNTYYADSVKGRFTISRDNAKNTVYLQMNSLKPEDTAVYYCAADISLHWYYYRRYNYWGQGTQVTVSS | low polyreactivity |
